Source: the DeepSol protein solubility set

Experiment: soluble on expression in E. coli; label from the status in PepcDB or PDB records

Row | Sequence | soluble on expression in E. coli
1 | MGKVLVIYDTRTGNTKKMAELVAEGARSLEGTEVRLKHVDEATKEDVLWADGLAVGSPTNMGLVSWKMKRFFDDVLGDLWGEIDGKIACAFSSSGGWGGGNEVACMSILTMLMNFGFLVFGVTDYVGKKFTLHYGAVVAGEPRSEEEKEACRRLGRRLAEWVAIFVDGRKELLEKIRKDPARFVD | soluble
2 | MGSDKIHHHHHHMKELRIDPITNDVVIFATDRLKRPLDTADIPNEDEETNEYDEECPFCKGNEAHATDALFEIDSEEGWLVKSVYNKFPIIDDMARDVYGVHEVMIESDKHNRSFYNMSQKEFEDVFFMYRNRFRDLSKDDKVEYVSIFKNFLRKAGASLMHPHAQILSMSFIPPEITNELLVSKEYYDSNKSSLYDDLIENEISLDRRVVYNGEAFLVLIPYATKYSGEVRIIFKDKIEFGELNDNNIQELSTIFEKLFKKLYNINGYMPFNLCIHTHPTKIETKSYFNVHMHIIPRKYNFGGFELGTNMYVSSMSPEDLTKKLKID | not soluble
3 | MIDQFMSMSELIDHTEEHKDWQILYNERVAKSLITAVHGGAIERGTSEIAQLISEIGGYSFYTFKGIRKNKNHELHVTSKHFDEPILNELVPTHEVVVSLHGCMGNDVAVYIGGKDLELSYEITQQLQKIGIVVKPAPAHIAGMQTENFVNKGKRDAGVQLELTVALRKQCFKNNKYNLHDRENRENWSQLMFSFSTAIANALKILNDLEHHHHHH | not soluble
4 | MAHHHHHHMENNNHGCNMHDDNFDLLMKKICNELKKGDKNKNGLIMYNTFIDVLDLFQIEYGSSIIDYLMKHCVVTEDGFVNYKNLWLIHDPSKTMRNNSESVEESINPKFMDIQDRYEDIDKYTQEKNEIIRKLYSQWDKCLLRDDEFKAKLINGNIDITPEFERSLYLYGPSRSLSFANVMKTLYINDSKNRKNRNNFVSKIKDEKWRKLNIDENEQQCFQDIHRNPIAWEGSNVTDADNLIQNVELISNYLRGEENVNMRKEEFISHDFFNNTVKNLIKNYISNKISESEFYLCLNKLNISVTPQLNNLIKCHELDSNGKFKDFATTINRCIPKNLLHSLQRRVQLYGAQKNDKDSKLNFSYNNCCCDRLCPNVTDDNPYSNENIDKH | not soluble
5 | MSLSKMAALITQEIGSFRKPEYLSMEFHKIEGTEKFKELAERATIDTLKIFENTGLDNVGIGGEMYRWEMYEHPAERIKGLIFYGMVRSFDNRYYRKGSVIDKIERRGSFHMDEVEFVAKSTKKPIKIPITGPYTMMDWSFNDHYNDRHELAMEFARIINEELKEIQSKWPYISNGRKLEIQIDEPATTTHPDEMDIVVDSVNKSIEGIDAELSLHVCYSRDYRLLYDRIPELNIDGYNLEYSNRDTTDLGVEDAKRPGFQDIKYFNEVNESLQRKKFIGVGVTDVHIDFIEPVKLIEDRIKYVLNIIKDPELVKLNPDCGLRTRSRSIGEQKLRNMVIAKNNVLKDISEGHHHHHH | not soluble
